Molecular target: T1, hen egg-white lysozyme (hen, UniProt P00698 19-147)
T1 construct: mature; also called HEL; target substance
Assay: SPR (BIAcore X), HEL amine-coupled to CM5 chip, polypeptide at 50, 100 and 200 nM in PBS-T
Method: The strains are cultured at 30° C. for 16 hours in ampicillin (100 μg/ml)-selective LB medium. IPTG is added thereto at the final concentration of 1 mM, followed by additional 16-hour culture to induce protein expression. The bacterial cells collected by centrifugation are subjected to osmotic pressure treatment (the bacterial cells are mixed with 0.5 M sucrose solution and supplemented with a 5-fold volume of pure water) and disrupted by French press to obtain as soluble fractions, the proteins of interest present in the E. coli periplasms. Next, the functional polypeptide chains are purified with HEL columns (HEL is adsorbed and immobilized onto CNBr-activated Sepharose 4B (Code No. 17-0430-01 (Amersham)); the immobilization is performed according to the accompanying protocol). The binding ability between the functional polypeptides and the target substances (HEL) is evaluated by using BIAcore (registered trademark) X (SPR measurement apparatus). […] Next, the molarity of the functional polypeptide chain is adjusted to 50 nM, 100 nM and 200 nM for the first functional polypeptide chain (HyHEL10 scFv-(G4S)3-WinZipA1), the second functional polypeptide chain (D1.3 scFv-(G4S)3-WinZipB1) and a 1:1 mixture of the first and second functional polypeptide chains by using PBS-T (0.1% Tween 20) buffer. […]

T1 sequence (P00698 19-147): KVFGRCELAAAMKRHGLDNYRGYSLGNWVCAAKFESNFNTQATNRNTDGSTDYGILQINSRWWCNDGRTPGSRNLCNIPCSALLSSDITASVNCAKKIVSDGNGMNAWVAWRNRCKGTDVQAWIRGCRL

B1: HyHEL10 scFv-(G4S)3-WinZipA1 (scFv)
scFv: DIQLQESGPSLVKPSQTLSLTCSVTGDSITSDYWSWIRKFPGNRLEYMGYVSYSGSTYYNPSLKSRISITRDTSKNQYYLDLNSVTTEDTATYYCANWDGDYWGQGTLVTVSAGGGGSGGGGSGGGGSDIVLTQSPATLSVTPGNSVSLSCRASQSIGNNLHWYQQKSHESPRLLIKYASQSISGIPSRFSGSGSGTDFTLSINSVETEDFGMYFCQQSNSWPYTFGGGTKLIITAGGGGSGGGGSGGGGSTVAQLEEKVKTLRAQNYELKSRVQRLREQVAQLA
notes: Secreted from E. coli with the pelB signal of a modified pET-20b(+) vector and purified on a HEL column; also called first functional polypeptide chain; first polypeptide chain
**Q.** With B1 as the binder, how does the Kd read?
**A.** 0.3 nM

Reference: patent US20060275811A1 (CANON, published 2006)
